B1: 7.1G10 (antibody, V domains shown)
VH: QVQLQQSGPELVKPGASVRISCKASGYTFTSYYIHWVKQRPGQGLEWIGWLYPGKINTRYNEKFKGKATLIADKSSSTAYMQLSSLTSEDSAVYFCARHVLNGNFDYWGQGTTLTVSS
VL: DIQMTQSPSSLSASLGERVSLTCRASQEISGYLSWLQQKPDGSIKRLIYAASTLDSGVPKRFSGSRSGADYSLTISSLESEDFADYYCLQYATYPYTFGGGTKLEIK
notes: ATCC PTA-3898
B2: 7.7G5 (antibody, V domains shown)
VH: EVQLQQSGPELVKPGASVKISCKASGYSFTGYFMNWVMQSHGKSLEWIGRIKPYNGDNFYNQKFMGKATLTVDKSSSTVHMELRSLASEDSAVYYCARDRYGTYGMDYWGQGTSVTVSS
VL: QIVLTQSPAIMSASPGEKVTMTCSASSSVSYMHWYQQKSGTSPKRWIYDTSKLASGVPTRFSGSGSGTSYSLTINSMEAEDAATYYCQQWSSHPPTFGAGTKLELK
notes: ATCC PTA-3899
B3: soluble recombinant human αvβ6 (receptor)
chain 1: FNLDVDSPAEYSGPEGSYFGFAVDFFVPSASSRMFLLVGAPKANTTQPGIVEGGQVLKCDWSSTRRCQPIEFDATGNRDYAKDDPLEFKSHQWFGASVRSKQDKILACAPLYHWRTEMKQEREPVGTCFLQDGTKTVEYAPCRSQDIDADGQGFCQGGFSIDFTKADRVLLGGPGSFYWQGQLISDQVAEIVSKYDPNVYSIKYNNQLATRTAQAIFDDSYLGYSVAVGDFNGDGIDDFVSGVPRAARTLGMVYIYDGKNMSSLYNFTGEQMAAYFGFSVAATDINGDDYADVFIGAPLFMDRGSDGKLQEVGQVSVSLQRASGDFQTTKLNGFEVFARFGSAIAPLGDLDQDGFNDIAIAAPYGGEDKKGIVYIFNGRSTGLNAVPSQILEGQWAARSMPPSFGYSMKGATDIDKNGYPDLIVGAFGVDRAILYRARPVITVNAGLEVYPSILNQDNKTCSLPGTALKVSCFNVRFCLKADGKGVLPRKLNFQVELLLDKLKQKGAIRRALFLYSRSPSHSKNMTISRGGLMQCEELIAYLRDESEFRDKLTPITIFMEYRLDYRTAADTTGLQPILNQFTPANISRQAHILLDCGEDNVCKPKLEVSVDSDQKKIYIGDDNPLTLIVKAQNQGEGAYEAELIVSIPLQADFIGVVRNNEALARLSCAFKTENQTRQVVCDLGNPMKAGTQLLAGLRFSVHQQSEMDTSVKFDLQIQSSNLFDKVSPVVSHKVDLAVLAAVEIRGVSSPDHVFLPIPNWEHKENPETEEDVGPVVQHIYELRNNGPSSFSKAMLHLQWPYKYNNNTLLYILHYDIDGPMNCTSDMEINPLRIKISSLQTTEKNDTVAGQGERDHLITKRDLALSEGDIHTLGCGVAQCLKIVCQVGRLDRGKSAILYVKSLLWTETFMNKENQNHSYSLKSSASFNVIEFPYKNLPIEDITNSTLVTTNVTWGIQPAPMPV
chain 2: GCALGGAETCEDCLLIGPQCAWCAQENFTHPSGVGERCDTPANLLAKGCQLNFIENPVSQVEILKNKPLSVGRQKNSSDIVQIAPQSLILKLRPGGAQTLQVHVRQTEDYPVDLYYLMDLSASMDDDLNTIKELGSRLSKEMSKLTSNFRLGFGSFVEKPVSPFVKTTPEEIANPCSSIPYFCLPTFGFKHILPLTNDAERFNEIVKNQKISANIDTPEGGFDAIMQAAVCKEKIGWRNDSLHLLVFVSDADSHFGMDSKLAGIVIPNDGLCHLDSKNEYSMSTVLEYPTIGQLIDKLVQNNVLLIFAVTQEQVHLYENYAKLIPGATVGLLQKDSGNILQLIISAYEELRSEVELEVLGDTEGLNLSFTAICNNGTLFQHQKKCSHMKVGDTASFSVTVNIPHCERRSRHIIIKPVGLGDALELLVSPECNCDCQKEVEVNSSKCHHGNGSFQCGVCACHPGHMGPRCECGEDMLSTDSCKEAPDHPSCSGRGDCYCGQCICHLSPYGNIYGPYCQCDNFSCVRHKGLLCGGNGDCDCGECVCRSGWTGEYCNCTTSTDSCVSEDGVLCSGRGDCVCGKCVCTNPGASGPTCERCPTCGDPCNSKRSCIECHLSAAGQAREECVDKCKLAGATISEEEDFSKDGSVSCSLQGENECLITFLITTDNEGKTIIHSINEKDCPKPPNIP
notes: extracellular domain; also called hsαvβ6; soluble human truncated αvβ6

Assays:
[1] = target: T1, αvβ6 on β6-transfected FDC-P1 cells (murine, UniProt P43406 31-1044; Q9Z0T9 22-787); test: β6-FDC-P1 cells to coated LAP, blocking
T1 construct: whole, on cells; αv is that of the murine host cell line; also called β6-FDC-P1 cells; β6-transfected murine cells
Procedure: A 96-well microtiter plate was coated with 50 μl/well of 0.5 μg/ml recombinant human LAP (R&D Systems) diluted in 50 mM sodium bicarbonate, pH 9.2 at 4° C. overnight. The plate was washed twice with PBS (100 μl/well) and blocked with 1% BSA in PBS (100 μl/well) for 1 hr at 25° C. The plate was washed twice with 100 μl/well of assay buffer (TBS complete plus 1 mM CaCl₂ and 1 mM MgCl₂). Next, to the individual wells of the plate were added 25 μl of a hybridoma supernatant (or a purified antibody) and 25 μl of β₆-FDC-P1 cells (5×10⁶ cells/ml, labeled with Calcein AM as described above). The plate was incubated at 25° C. for 1 hr, and then washed 4-6 times with the assay buffer (100 μl/well). The fluorescence emitted from cells captured on the plate was recorded. Percentage binding was determined by comparing the fluorescence signal prior to the final wash step (i.e., total cells added) to that after washing (i.e., bound cells).

[2] = target: αvβ6 on β6-transfected SW480 cells (UniProt P06756 31-1048; P18564 22-788); test: cell-based or functional assay
[3] = target: B3; test: ELISA, coated hsαvβ6
Procedure: A 96-well microtiter plate (Corning COSTAR EASY-WASH) was coated with 50 μl/well of 5 μg/ml hsαᵥβ₆ at 4° C. overnight. The plate was washed with wash buffer (0.1% TWEEN-20 in PBS) four times in an automated plate washer. Then 180 μl/well of 3% BSA in TBS was added and incubated for 1 hr at 25° C. to block nonspecific binding. The plate was washed as above, and dilutions of either hybridoma supernatant (for screening assays) or purified antibody (for characterization) in TBS containing 1 mg/ml BSA, 1 mM CaCl₂, and 1 mM MgCl₂ were added (50 μl/well). The plate was incubated for 1 hr at 25° C., washed, and then incubated for 1 hr with 50 μl/well of […] goat anti-mouse IgG+A+M antibody (Cappel). Bound antibody was detected using 3,3′,5,5′-tetramethylbenzidine (TMB). Binding was indicated by the absorbency measured at 450 nm.

[4] = target: B3; test: biotin-hsαvβ6 to coated LAP, blocking
Procedure: 96-well microtiter plates (Corning COSTAR EASY-WASH) were coated with 0.3 μg/ml recombinant human LAP (R&D Systems, Cat. # 246-LP) diluted in PBS (50 μl/well) at 4° C. overnight. After the coating solution was removed, the plates were blocked with 180 μl/well of 3% BSA/TBS at 25° C. for 1 hr. […] After washing the LAP-coated plate with wash buffer (0.1% TWEEN-20 in PBS) 4 times in an automated plate washer, 100 μl of the antibody-αᵥβ₆ mixture was transferred to the plate, and incubated for 1 hr at 25° C. The plate was washed as above and incubated with 50 μl/well of a 1:1000 dilution of extravidin-horseradish peroxidase conjugate (Sigma) in TBS (1 mg/ml BSA) for 1 hr at 25° C. Bound protein was detected using the TMB substrate.
The purified antibodies were next evaluated for their ability to inhibit the αᵥβ₆-LAP interaction.

6.3G9 = target: T2, 6.3G9; test: KinExA: soluble αvβ6 titrated against 1e-10 M antibody, free antibody caught on integrin-coated beads
T2 construct: ATCC PTA-3649; also called biotinylated 6.3G9
Procedure: A series of dilutions of the soluble integrin (1×10⁻⁸ M to 2.4×10⁻¹² M) were incubated with 1×10⁻¹⁰ M of the antibody for 3 h. These samples were then passed through polymethylmethacrylate beads coated with the integrin using a KinExA instrument (Sapidyne Instruments, Inc., Boise, Id.). In the case of 6.8G6, 11 mM CaCl₂ and […] MgCl₂ were included in the incubation and assay buffers. The amounts of bound and free antibody were determined using a Cy5-labeled anti-mouse secondary antibody. Quadratic curve fitting was performed using the KinExA software to attain a dissociation constant (Kd) for each interaction. […] Thus, both of these antibodies had very high affinities for αᵥβ₆.

T1 sequence (P43406 31-1044, chain 1 of 2): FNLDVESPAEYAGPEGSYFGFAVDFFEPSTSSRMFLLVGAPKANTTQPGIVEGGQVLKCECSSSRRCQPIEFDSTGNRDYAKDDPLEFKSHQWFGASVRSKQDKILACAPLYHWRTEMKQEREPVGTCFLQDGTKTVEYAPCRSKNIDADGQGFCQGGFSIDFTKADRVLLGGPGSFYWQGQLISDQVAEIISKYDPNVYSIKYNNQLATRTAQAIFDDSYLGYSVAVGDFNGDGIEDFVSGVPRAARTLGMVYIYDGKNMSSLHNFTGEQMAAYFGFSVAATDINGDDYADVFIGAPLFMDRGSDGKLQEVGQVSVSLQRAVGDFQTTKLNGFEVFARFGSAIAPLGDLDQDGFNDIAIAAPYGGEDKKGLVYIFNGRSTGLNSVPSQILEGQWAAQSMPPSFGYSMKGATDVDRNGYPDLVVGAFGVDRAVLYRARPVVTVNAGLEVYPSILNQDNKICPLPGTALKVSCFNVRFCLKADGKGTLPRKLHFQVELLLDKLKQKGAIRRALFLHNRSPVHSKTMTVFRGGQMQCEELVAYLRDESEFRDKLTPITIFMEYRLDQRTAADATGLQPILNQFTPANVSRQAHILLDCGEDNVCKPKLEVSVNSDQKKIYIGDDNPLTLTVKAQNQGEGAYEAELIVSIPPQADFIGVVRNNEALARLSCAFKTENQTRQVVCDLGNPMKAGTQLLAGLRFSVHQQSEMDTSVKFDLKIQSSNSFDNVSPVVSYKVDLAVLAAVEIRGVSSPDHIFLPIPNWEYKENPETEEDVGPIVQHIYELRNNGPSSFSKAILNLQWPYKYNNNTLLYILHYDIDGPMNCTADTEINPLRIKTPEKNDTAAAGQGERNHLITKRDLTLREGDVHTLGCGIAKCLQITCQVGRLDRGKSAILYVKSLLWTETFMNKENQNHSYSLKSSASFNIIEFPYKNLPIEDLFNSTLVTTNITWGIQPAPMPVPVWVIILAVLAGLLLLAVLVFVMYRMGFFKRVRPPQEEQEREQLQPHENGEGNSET
T1 sequence (Q9Z0T9 22-787, chain 2 of 2): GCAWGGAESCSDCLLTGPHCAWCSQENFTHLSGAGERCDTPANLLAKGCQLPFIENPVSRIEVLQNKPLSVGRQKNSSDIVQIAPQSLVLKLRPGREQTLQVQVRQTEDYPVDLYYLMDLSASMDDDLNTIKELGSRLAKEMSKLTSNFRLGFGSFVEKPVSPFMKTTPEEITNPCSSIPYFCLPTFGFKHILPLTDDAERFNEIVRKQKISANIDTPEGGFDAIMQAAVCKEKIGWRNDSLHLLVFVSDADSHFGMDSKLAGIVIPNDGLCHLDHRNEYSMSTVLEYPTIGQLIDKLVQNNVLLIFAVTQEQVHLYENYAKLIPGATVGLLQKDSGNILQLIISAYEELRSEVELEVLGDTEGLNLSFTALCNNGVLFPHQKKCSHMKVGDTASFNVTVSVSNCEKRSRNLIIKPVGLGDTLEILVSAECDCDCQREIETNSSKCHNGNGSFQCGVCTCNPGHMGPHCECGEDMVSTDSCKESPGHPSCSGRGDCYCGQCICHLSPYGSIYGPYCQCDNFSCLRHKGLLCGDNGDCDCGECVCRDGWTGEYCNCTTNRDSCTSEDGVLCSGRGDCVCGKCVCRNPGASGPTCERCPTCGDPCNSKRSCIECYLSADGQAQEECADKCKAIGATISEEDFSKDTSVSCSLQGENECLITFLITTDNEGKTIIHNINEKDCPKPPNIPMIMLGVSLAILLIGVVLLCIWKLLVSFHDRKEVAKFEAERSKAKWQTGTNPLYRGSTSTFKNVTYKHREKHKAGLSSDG

Binder	IC50 [1]	PAI-1 luciferase IC50 [2]	EC50 [3]	IC50 [4]	IC50 (read off the curve) (6.3G9)
B1	0.03 µg/mL	250 ng/mL	4.2 ng/mL	0.113 µg/mL	
B2	0.051 µg/mL	700 ng/mL	13 ng/mL	0.155 µg/mL	
B3					~50 pM
